IntAct's records for PubMed 10779557

B1: Lymphokine-activated killer T-cell-originated protein kinase (Homo sapiens), Q96KB5 (parent)
chain: MEGISNFKTPSKLSEKKKSVLCSTPTINIPASPFMQKLGFGTGVNVYLMKRSPRGLSHSPWAVKKINPICNDHYRSVYQKRLMDEAKILKSLHHPNIVGYRAFTEANDGSLCLAMEYGGEKSLNDLIEERYKASQDPFPAAIILKVALNMARGLKYLHQEKKLLHGDIKSSNVVIKGDFETIKICDVGVSLPLDENMTVTDPEACYIGTEPWKPKEAVEENGVITDKADIFAFGLTLWEMMTLSIPHINLSNDDDDEDKTFDESDFDDEAYYAALGTRPPINMEELDESYQKVIELFSVCTNEDPKDRPSAAHIVEALETDV

Variants of: B1
Conditions: with dlg1_human DLG1, Q12959
dlg1_human DLG1, Q12959, sequence (Q12959 whole entry, looked up): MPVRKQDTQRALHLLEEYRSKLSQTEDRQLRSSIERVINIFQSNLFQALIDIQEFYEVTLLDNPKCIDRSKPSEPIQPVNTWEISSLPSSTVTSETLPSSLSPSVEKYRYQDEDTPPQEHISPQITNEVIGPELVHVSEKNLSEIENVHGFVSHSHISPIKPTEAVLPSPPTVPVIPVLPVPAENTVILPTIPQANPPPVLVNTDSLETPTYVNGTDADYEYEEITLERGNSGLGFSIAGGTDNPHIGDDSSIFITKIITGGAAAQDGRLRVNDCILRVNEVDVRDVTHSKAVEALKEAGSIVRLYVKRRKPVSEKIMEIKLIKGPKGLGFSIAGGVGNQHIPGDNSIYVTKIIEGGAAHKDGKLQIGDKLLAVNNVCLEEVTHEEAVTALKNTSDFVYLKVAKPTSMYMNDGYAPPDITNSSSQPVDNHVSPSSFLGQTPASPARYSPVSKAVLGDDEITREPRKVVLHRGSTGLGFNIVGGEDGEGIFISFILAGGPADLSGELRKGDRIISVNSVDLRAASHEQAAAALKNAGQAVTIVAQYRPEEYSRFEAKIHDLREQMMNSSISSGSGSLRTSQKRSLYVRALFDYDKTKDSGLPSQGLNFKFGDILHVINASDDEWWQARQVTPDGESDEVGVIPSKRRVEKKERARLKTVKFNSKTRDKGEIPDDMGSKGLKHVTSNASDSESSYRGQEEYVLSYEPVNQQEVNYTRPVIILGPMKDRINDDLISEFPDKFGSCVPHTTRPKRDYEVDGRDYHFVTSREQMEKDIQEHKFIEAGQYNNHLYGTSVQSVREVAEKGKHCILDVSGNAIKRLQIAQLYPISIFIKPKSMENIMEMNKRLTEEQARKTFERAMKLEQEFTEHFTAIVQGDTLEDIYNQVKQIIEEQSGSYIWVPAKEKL

Row | effect of a mutation on the interaction | Variant
1 | decreasing interaction | T320A
2 | disrupting interaction | V322A
